Our source for the Kd and stoichiometry N values is article PMC3094495.

Assay [1] addresses N15 Cro (Escherichia phage N15) (UniProt P03040). The following applies: cited from earlier work.
Assay [2] addresses bacteriophage N15 Cro (bacteriophage N15). As to the kind of experiment: native MS.
The target of assay [3] is λ Cro (Escherichia phage lambda) (UniProt P03040). Conditions: cited from earlier work.
Assay [4] deals with T1, bacteriophage λ Cro (bacteriophage λ), P03040.
T1 chain: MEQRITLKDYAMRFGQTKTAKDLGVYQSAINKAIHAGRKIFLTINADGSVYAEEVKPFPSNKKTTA
Description: native MS. The following applies: remark: other sources report otherwise.

Take N15 Cro (from UniProt P03040): the Kd in assay [1] was 5 µM.

On to bacteriophage N15 Cro (natural protein), for which the stoichiometry N in assay [2] was determined as 2.

Consider λ Cro (from UniProt P03040), for which the Kd in assay [3] was 3 µM.

B1: bacteriophage λ Cro, P03040 1-66 (natural protein)
chain: T1 chain
With B1, the stoichiometry N in assay [4] stood at 2.

What is called Kd is the equilibrium constant for the complex coming apart. In general, stoichiometry N refers to a count of units in the complex or per binding partner.
